Experimental data: publication PMC9525694

Biological target: T1, Bak (human (endogenous in HeLa)), Q16611
T1 chain: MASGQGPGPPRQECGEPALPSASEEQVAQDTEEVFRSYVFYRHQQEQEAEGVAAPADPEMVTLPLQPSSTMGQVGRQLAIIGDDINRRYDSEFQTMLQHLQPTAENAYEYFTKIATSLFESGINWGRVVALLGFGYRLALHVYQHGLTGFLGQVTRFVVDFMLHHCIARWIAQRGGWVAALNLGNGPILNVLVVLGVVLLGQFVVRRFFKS
Experiment: native gel or EMSA; BN-PAGE (6-16.5% gradient, 4 °C) of mitochondria from uninfected HeLa cells incubated with recombinant tBid for 30 min, lysed in 1% digitonin; Western blot for Bak
Settings: remark: other sources report otherwise

stoichiometry N: 2
B1: Bak, Q16611 1-211 (natural protein)
chain: MASGQGPGPPRQECGEPALPSASEEQVAQDTEEVFRSYVFYRHQQEQEAEGVAAPADPEMVTLPLQPSSTMGQVGRQLAIIGDDINRRYDSEFQTMLQHLQPTAENAYEYFTKIATSLFESGINWGRVVALLGFGYRLALHVYQHGLTGFLGQVTRFVVDFMLHHCIARWIAQRGGWVAALNLGNGPILNVLVVLGVVLLGQFVVRRFFKS
